Laboratory results taken from patent publication US20040161746A1 (published 2004).

T1: B1153 protein (human, UniProt Q96JG6 1-964)
T1 construct: also called indicator protein
T1 sequence: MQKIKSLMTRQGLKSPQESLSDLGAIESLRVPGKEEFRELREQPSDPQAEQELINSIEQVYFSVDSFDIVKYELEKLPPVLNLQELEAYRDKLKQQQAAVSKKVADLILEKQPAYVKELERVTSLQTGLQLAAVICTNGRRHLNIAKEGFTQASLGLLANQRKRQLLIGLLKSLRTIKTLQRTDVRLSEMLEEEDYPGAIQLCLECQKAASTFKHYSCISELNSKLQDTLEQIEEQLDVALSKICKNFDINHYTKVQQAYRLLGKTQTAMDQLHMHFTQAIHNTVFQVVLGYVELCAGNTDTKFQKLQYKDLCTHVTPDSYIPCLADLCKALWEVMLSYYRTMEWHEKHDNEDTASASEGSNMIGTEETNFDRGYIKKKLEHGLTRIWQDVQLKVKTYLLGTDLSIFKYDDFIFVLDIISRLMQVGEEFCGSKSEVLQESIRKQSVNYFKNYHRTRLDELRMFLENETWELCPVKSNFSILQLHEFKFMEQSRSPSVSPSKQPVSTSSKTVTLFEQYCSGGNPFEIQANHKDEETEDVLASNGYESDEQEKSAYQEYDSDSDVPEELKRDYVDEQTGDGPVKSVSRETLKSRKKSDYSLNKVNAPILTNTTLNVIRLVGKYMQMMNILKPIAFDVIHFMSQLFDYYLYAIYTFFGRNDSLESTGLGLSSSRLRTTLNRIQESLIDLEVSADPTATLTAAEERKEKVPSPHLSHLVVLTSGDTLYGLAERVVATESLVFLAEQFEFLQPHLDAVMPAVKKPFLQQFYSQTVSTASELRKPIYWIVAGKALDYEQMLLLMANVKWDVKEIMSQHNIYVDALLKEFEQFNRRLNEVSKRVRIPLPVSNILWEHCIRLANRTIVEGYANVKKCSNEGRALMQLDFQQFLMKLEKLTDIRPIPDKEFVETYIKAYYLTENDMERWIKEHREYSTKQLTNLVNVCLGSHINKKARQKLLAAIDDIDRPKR


target: T1, B1153 protein; experiment: yeast two-hybrid (PROQUEST, GAL4), B1153 full-length ORF as bait, Human Brain cDNA library prey
Experimental: By the PROQUEST™ TWO-Hybrid system (Invitrogen) utilizing the in vivo gene expression system of GAL4 series yeast, a search for a protein that interacts with the protein of this invention was carried out. Screening for a protein that interacts with B1153 was conducted for the Human Brain cDNA library with the full-length ORF region (86 bp to 2977 bp) of the B1153 gene as a bait. In this case, protocol according to the manual attached to the system was used.

binding result | Binder
binds | myosin binding subunit 85 partial sequence, Prey-No. 11 (656 aa to 782 aa) (other, human, UniProt Q9BZL4 656-782, looked up, range 656-782; Prey clone from a Human Brain cDNA library; The prey fusion domain is not described) GPSARRQRWQRDLNPEPEPESEEPDGGFRTLYAELRRENERLREALTETTLRLAQLKVELERATQRQERFAERPALLELERFERRALERKAAELEEELKALSDLRADNQRLKDENAALIRVISKLSK
binds | myosin binding subunit 85 partial sequence, Prey-No. 3 (590 aa to 782 aa) (other, human, UniProt Q9BZL4 590-782, looked up, range 590-782; Prey clone from a Human Brain cDNA library in the yeast two-hybrid system) PSRRPRVPGVENSDSPAQRAEAPDGQGPGPQAAREHRKVGKEWRGPAEGEEAEPADRSQESSTLEGGPSARRQRWQRDLNPEPEPESEEPDGGFRTLYAELRRENERLREALTETTLRLAQLKVELERATQRQERFAERPALLELERFERRALERKAAELEEELKALSDLRADNQRLKDENAALIRVISKLSK
binds | myosin binding subunit 85 partial sequence, Prey-No. 4 (590 aa to 782 aa) (other, human, UniProt Q9BZL4 590-782, looked up, range 590-782; Prey clone from a Human Brain cDNA library; It has the same amino acid range as Prey-No. 3 and differs only in 3'-UTR length; The prey fusion domain is not described) PSRRPRVPGVENSDSPAQRAEAPDGQGPGPQAAREHRKVGKEWRGPAEGEEAEPADRSQESSTLEGGPSARRQRWQRDLNPEPEPESEEPDGGFRTLYAELRRENERLREALTETTLRLAQLKVELERATQRQERFAERPALLELERFERRALERKAAELEEELKALSDLRADNQRLKDENAALIRVISKLSK
